The values that follow come from PMC7280789, “Isotype Switching Converts Anti-CD40 Antagonism to Agonism to Elicit Potent Antitumor Activity” (Cancer Cell, 2020).

Experiment [1] concerns the target T1, full-length hCD40 expressed on CHO-k1 cells (Homo sapiens, UniProt P25942).
T1 construct: CD40, human; results call it the full-length CD40 molecule; methods: wild-type full-length extracellular (EC) domain (CRD1-4) cloned into pCIpuro that contains the CD40 transmembrane domain for membrane anchoring; also called full-length CD40 molecule; CRD1-4; source: CHO-k1, stably transfected (pCIpuro), on cells
In words: flow cytometry on cells; CHO-k1 cells expressing full-length hCD40 or truncated variants CRD2-4 or CRD3-4 incubated with 10 μg/mL anti-CD40 mAb; bound mAb detected by anti-human Fc-PE. The note with it: one partner purified. (In general: Flow cytometry measures light scatter and fluorescence of single cells or particles in a stream.)

Experiment [2] deals with T2, hCD40 truncated variant CRD2-4 expressed on CHO-k1 cells (Homo sapiens, UniProt P25942, point mutant).
T2 construct: CD40, human, truncated variant CRD2-4 (lacks CRD1), with the CD40 transmembrane domain of the vector; source: CHO-k1, stably transfected (pCIpuro), on cells
The description is as above. The note with it: one partner purified.

Experiment [3] has as its target T3, hCD40 truncated variant CRD3-4 expressed on CHO-k1 cells (Homo sapiens, UniProt P25942, point mutant).
T3 construct: CD40, human, truncated variant CRD3-4 (lacks CRD1 and CRD2), with the CD40 transmembrane domain of the vector; source: CHO-k1, stably transfected (pCIpuro), on cells
The description is as above. The note with it: one partner purified.

Experiment [4] deals with T4, His-tagged recombinant soluble full-length extracellular domain (EC) of hCD40 (Homo sapiens, UniProt P25942).
T4 construct: CD40, human, wild-type full-length extracellular (EC) domain (CRD1-4); Used in the western blot and, as 'hCD40 EC domain', in the SEC/SEC-SAXS complex with 341G2 F(ab); also called hCD40 EC domain; CD40EC; source: FreeStyle 293F, transfected (pcDNA3.1), purified from supernatant (Ni-NTA)
In words: far-Western, overlay or dot blot; western blot: His-tagged recombinant CD40 proteins run on 18% polyacrylamide gels, transferred to nitrocellulose, incubated with the anti-CD40 mAb at 4°C overnight, detected with goat anti-human IgG-HRP. The note with it: both partners purified.

The target of a further experiment is T5, CD40 on Ramos cells (Homo sapiens (Ramos cells), UniProt P25942).
T5 construct: CD40 on the surface of Ramos cells; also called CD40-expressing Ramos cells; source: endogenous, on Ramos cells
Put plainly: flow cytometry on cells; Ramos cells incubated with a fixed concentration of CD40L and various concentrations of anti-CD40 mAbs; remaining bound CD40L detected by anti-FLAG-APC. The note with it: one partner purified.

Experiment [5] concerns the target T6, hCD40 (immobilised for SPR) (Homo sapiens, UniProt P25942).
T6 construct: CD40, human
Put plainly: SPR; Biacore T100; hCD40 immobilised on a CM5 chip by amine coupling; mAbs injected at 250, 50, 10, 2, 0.4 and 0 nM in HBS-EP+, 30 μL/min, 300 s association, 300 s dissociation; 1:1 Binding model. The note with it: both partners purified. For orientation: Surface plasmon resonance follows binding to a sensor surface in real time, without labels.

For experiment [6], the target named is T4, His-tagged recombinant soluble …. In words: SEC; 341G2 F(ab) and hCD40 EC domain mixed at a 1:1 molar ratio for 1 hour, complex purified by SEC; then SEC-SAXS on Superdex 200 increase 3.2/200 in PBS, 20°C. The note with it: both partners purified.

T5 sequence (P25942 21-277): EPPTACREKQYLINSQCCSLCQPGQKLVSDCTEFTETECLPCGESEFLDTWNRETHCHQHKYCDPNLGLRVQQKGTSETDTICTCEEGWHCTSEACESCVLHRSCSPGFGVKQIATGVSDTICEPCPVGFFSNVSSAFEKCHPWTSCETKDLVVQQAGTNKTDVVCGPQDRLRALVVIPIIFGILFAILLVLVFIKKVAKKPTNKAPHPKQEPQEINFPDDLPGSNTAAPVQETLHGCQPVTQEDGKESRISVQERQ
T4 sequence (P25942 21-193): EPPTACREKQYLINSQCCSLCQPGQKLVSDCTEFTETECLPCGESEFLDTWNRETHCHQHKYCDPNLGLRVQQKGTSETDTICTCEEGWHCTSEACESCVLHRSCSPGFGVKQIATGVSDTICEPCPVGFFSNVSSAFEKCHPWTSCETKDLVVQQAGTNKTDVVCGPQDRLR
T6 sequence (P25942 21-277): as the sequence (P25942 21-277) above
T2 sequence (P25942 whole entry, looked up, change not shown, the tested form may be a part): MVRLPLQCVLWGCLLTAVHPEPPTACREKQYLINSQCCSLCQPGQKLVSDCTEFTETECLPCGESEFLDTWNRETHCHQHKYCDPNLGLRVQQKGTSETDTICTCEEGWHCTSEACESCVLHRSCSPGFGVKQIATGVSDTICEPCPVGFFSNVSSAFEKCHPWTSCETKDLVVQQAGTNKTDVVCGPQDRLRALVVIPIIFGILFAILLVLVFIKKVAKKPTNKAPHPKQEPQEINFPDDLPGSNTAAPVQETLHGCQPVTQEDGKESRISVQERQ
T1 sequence (P25942 whole entry, looked up, the tested form may be a part): as the sequence (P25942 whole entry, looked up, change not shown, the tested form may be a part) above
T3 sequence (P25942 whole entry, looked up, change not shown, the tested form may be a part): as above

B1: 341G2 (anti-CD40 mAb; isotype not stated for these experiments) (antibody, V domains shown)
VH: QVQLQQSGPGLVKPSQTLSLTCAISGDSVSSNSATWNWIRQSPSRDLEWLGRTYYRSKWYRDYVGSVKSRIIINPDTSNNQFSLQLNSVTPEDTAIYYCTRAQWLGGDYPYYYSMDVWGQGTTVTVSS
VL: EIVLTQSPATLSLSPGERATLSCRASQSVSSYLAWYQQKPGQAPRLLIYDASNRATGIPARFSGSGSGTDFTLTISSLEPEDFAVYYCQQRSNTFGPGTKVDIK
notes: 341G2 heavy chain; 341G2 light chain; also called bleselumab; source: produced either from hybridoma cells or by transient expression in CHO cells, purified on protein A columns; copies: 2 + 2
On to B1, for which the binding result in experiment [1] is listed as “binds”; in experiment [2], “no binding (tested: 10 μg/mL)”; in experiment [3], “no binding (tested: 10 μg/mL)”; in experiment [4] it was “binds”.

B2: 341G2 hIgG4 (parental 341G2) (antibody, V domains shown)
VH: B1 VH
VL: B1 VL
notes: 341G2 heavy chain variable domain; human IgG4 heavy chain constant region (pEE6.4 vector encoding the isotype); may stand in SASBDB SASDHN8; IgG4; also called 341G2 h4; bleselumab; source: produced either from hybridoma cells or by transient expression in CHO cells, purified on protein A columns; copies: 2 + 2
Turning to B2, the binding result (with CD40 on Ramos cells; in experiment [5]) was “binds” each time.

B3: 341G2 hIgG1 (antibody, V domains shown)
VH: B1 VH
VL: B1 VL
notes: 341G2 heavy chain variable domain; human IgG1 heavy chain constant region (pEE6.4 vector encoding the isotype); may stand in SASBDB SASDHN8; IgG1; also called 341G2 h1; hIgG1 variant of 341G2; source: produced either from hybridoma cells or by transient expression in CHO cells, purified on protein A columns; copies: 2 + 2
With B3, the binding result with CD40 on Ramos cells is “binds”.

B4: 341G2 F(ab) (Fab, V domains shown)
VH: B1 VH
VL: B1 VL
notes: may stand in the SASBDB entry of the CD40-341G2 F(ab) complex; may stand in SASBDB SASDHN8; also called F(ab) fragment of 341G2 hIgG1; source: digestion of 341G2 hIgG1 with papain-agarose, protein A depletion of IgG1 and Fc, purified by SEC
For B4, in experiment [6], the binding result is recorded as “binds”.
